Experiments:
DCAF12 = experiment: NanoBRET with full-length proteins, DCAF12; assay type: cell-based, human; settings: HEK293T cells; FL protein
Text: To further investigate the DCAF12 interaction with MAGEA3 and CCT5 in cells, we developed a NanoBRET assay, which measures the interaction of […] FL MEAGEA3/CCT5 or C-terminal peptide containing degron sequences ([…]/[…], respectively). When donor and acceptor proteins are in close proximity, the donor excites the acceptor, which then emits fluorescence, allowing for direct measurement of protein–protein interaction in cells.
HEK293T cells were plated in 96-well plates (2 × 10^4/well) and 4 h later transfected with 0.03 µg/well N-terminally HT-tagged DCAF12 (WT or mutants) or HT alone and 0.001 µg/well N-terminally NL-tagged CCT5 and MAGEA3 (FL or -EE degrons) using X-tremeGene HP transfection reagent (Roche), following the manufacturer's instructions. […] Four hours later, 10 µL of NanoBRET Nano-Glo Substrate solution (8 µL/mL Nano-Glo substrate (Promega) diluted in DMEM/F12 no phenol red, supplemented with 4% FBS, penicillin 100 U/mL, and streptomycin 100 µg/mL) was added, and the signal was read. Donor emission at 450 nm (filter: 450 nm/BP 80 nm) and acceptor emission at 618 nm (filter: 610 nm/LP) were measured within 10 min of substrate addition using CLARIOstar microplate reader (Mandel). […]

[1] = system: DCAF12 mutants K91A, K108A, R203A, R256A, R344A; experiment: NanoBRET with full-length proteins, DCAF12 mutants; assay type: cell-based, human; settings: HEK293T cells; FL protein; all DCAF12 mutations vs WT
Text: Fig. 2. Conserved arginine and lysine residues near DCAF12 central channel participate in MAGEA3 binding in cells. A) DCAF12 electrostatic surface potential analysis showing negatively and positively charged residues colored in red and blue, respectively. On the left, DDB1 contacting surface of DCAF12. On the right, substrate contacting surface with positively charged residues—Arg203, Arg256, and Arg344—highlighted as sticks. Electrostatic potential is shown on a scale of −10 (red) kT/e to 10 (blue). B) Conservation analysis of DCAF12 showing high conservation of the same positively charged residues (represented as sticks) among homologous sequences. Residues were colored on a scale from variable/low conservation (dark teal) to high conservation (magenta). […]
HEK293T cells were plated in 96-well plates (2 × 10^4/well) and 4 h later transfected with 0.03 µg/well N-terminally HT-tagged DCAF12 (WT or mutants) or HT alone and 0.001 µg/well N-terminally NL-tagged CCT5 and MAGEA3 (FL or -EE degrons) using X-tremeGene HP transfection reagent (Roche), following the manufacturer's instructions. […] Four hours later, 10 µL of NanoBRET Nano-Glo Substrate solution (8 µL/mL Nano-Glo substrate (Promega) diluted in DMEM/F12 no phenol red, supplemented with 4% FBS, penicillin 100 U/mL, and streptomycin 100 µg/mL) was added, and the signal was read. […]

B1: MAGEA3-FL: full-length melanoma-associated antigen 3 protein (protein)
chain: MPLEQRSQHCKPEEGLEARGEALGLVGAQAPATEEQEAASSSSTLVEVTLGEVPAAESPDPPQSPQGASSLPTTMNYPLWSQSYEDSSNQEEEGPSTFPDLESEFQAALSRKVAELVHFLLLKYRAREPVTKAEMLGSVVGNWQYFFPVIFSKASSSLQLVFGIELMEVDPIGHLYIFATCLGLSYDGLLGDNQIMPKAGLLIIVLAIIAREGDCAPEEKIWEELSVLEVFEGREDSILGDPKKLLTQHFVQENYLEYRQVPGSDPACYEFLWGPRALVETSYVKVLHHMVKISGGPHISYPPLHEWVLREGEE
modifications: left off: NanoLuc, N-terminal, kept
notes: full-length melanoma-associated antigen 3 protein
BRET signal over negative control (DCAF12): 22 fold
decrease of DCAF12 interaction by mutations, NanoBRET [1]: over 50%
